Results: article PMC10229621

Biological target: T4 capsid (empty HocΔSocΔ head from the 10-amber.13-amber.HocΔ.SocΔ T4 mutant) (bacteriophage T4) (UniProt P19896)
Experiment: co-sedimentation

Cpf1-Soc
stoichiometry N (molecules per capsid): 450

Cre-Hoc
stoichiometry N (molecules per capsid): 95

Cre-Soc
stoichiometry N (molecules per capsid): 630

GFP-Soc
stoichiometry N (molecules per capsid): 660

NLS-Cas9-Soc
stoichiometry N (molecules per capsid): 550

RGD-Hoc
stoichiometry N (molecules per capsid): 85

Soc-RGD
stoichiometry N (molecules per capsid): 710

Soc-TAT
stoichiometry N (copies per capsid): 520
stoichiometry N (molecules per capsid): 750

β-Gal-Soc
stoichiometry N (molecules per capsid): 320
